According to patent publication US20250163157A1 (Boehringer Ingelheim, published 2025):
Changes are numbered by the printed parent chain. Names may count otherwise.

B1: reference antibody (full-length bivalent, monospecific, agonistic anti-CD277 antibody; heavy chain of SEQ ID NO:94, light chain of SEQ ID NO:93) (antibody, human IgG1, kappa, L234A L235A, V domains shown)
VH: QVQLQQSGAELVKPGASVKLSCKASGYTFTRYYLYWVKQRPGQGLEWIGEINPNNGGTKFNEKFKSKATLTVDKSSRTTYIQLSSLTSEDSAVYYCSREDDYDGTPDAMDYWGQGTAVTVSS
VL: DIQMNQSPSSLSASLGDTITITCHASQNINLWLSWYQQRPGNIPKLLIYRASNLHTGVPSRFSGSGSATGFTLTISSLQPEDIATYYCQQGHSYPYTFGGGTKLDIKR
notes: also called parent antibody
B2: Antibody 47 (anti-CD277; VL parent, VH CDR2 N185S, K190N) (antibody, V domains shown)
VH: B1 VH with N54S, K59N
VL: DIQMNQSPSSLSASLGDTITITCHASQNINLWLSWYQQRPGNIPKLLIYRASNLHTGVPSRFSGSGSATGFTLTISSLQPEDIATYYCQQGHSYPYTFGGGTKLDIK
notes: also called EvB#47; EvB#23
B3: Antibody 52 (anti-CD277; VL CDR1 L31V, VH CDR2 N185S, K190N) (antibody, V domains shown)
VH: B1 VH with N54S, K59N
VL: B2 VL with L31V
notes: Its constructs use human IgG1 with L234A/L235A and human kappa; also called EvB#52; EvB#29

These binders were tested against T1, recombinant CD277 (human, UniProt O00481 30-254, limits assumed) (assay: SPR (Biacore), recombinant CD277 amine-coupled to CM5 chip, antibody as analyte, 1:1 Langmuir fit).
T1 construct: It gives no isoform (BTN3A1, A2 or A3), construct limits or supplier; also called BTN3A; Butyrophilin 3 family member BTN3A
Procedure: SPR assay was performed according to the state of the art. In short, recombinant CD277 was immobilized to the surface of a Biacore CM5 optical sensor chip by covalent EDC/NHS coupling following the Biacore amine coupling kit protocol. Antibody samples were applied as analytes in serial dilution allowing standardized comparison of all antibodies binding to the identical target molecule surface. Kinetic analysis data are based on 1:1 Langmuir curve fitting model and mean Langmuir on-rates, off-rates and KD values: see table 5.

T1 sequence (O00481 30-254 limits assumed): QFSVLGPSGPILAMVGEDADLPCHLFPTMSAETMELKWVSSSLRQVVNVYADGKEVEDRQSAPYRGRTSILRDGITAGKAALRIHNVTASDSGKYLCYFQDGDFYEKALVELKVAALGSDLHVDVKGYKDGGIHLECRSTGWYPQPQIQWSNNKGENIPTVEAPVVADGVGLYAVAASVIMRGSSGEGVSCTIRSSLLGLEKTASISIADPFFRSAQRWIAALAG

Kd | Binder
2.8 nM | B1
26.3 nM | B2
13.9 nM | B3
